Measurements reported in patent US20020004209A1, “Use of SLIM3 for binding to molecules” (Schering Aktiengesellschaft Patents, priority 1999, published 2002).

What was measured:
[1] = target: T1, progesterone receptor alpha (Homo sapiens, UniProt P06401); test: GST-protein-interaction test; assay type: binding; settings: in vitro
T1 construct: made in house; host or cells: in vitro translation, 35S-methionine labelled
T1 sequence (P06401 1-769 isoform P06401-2): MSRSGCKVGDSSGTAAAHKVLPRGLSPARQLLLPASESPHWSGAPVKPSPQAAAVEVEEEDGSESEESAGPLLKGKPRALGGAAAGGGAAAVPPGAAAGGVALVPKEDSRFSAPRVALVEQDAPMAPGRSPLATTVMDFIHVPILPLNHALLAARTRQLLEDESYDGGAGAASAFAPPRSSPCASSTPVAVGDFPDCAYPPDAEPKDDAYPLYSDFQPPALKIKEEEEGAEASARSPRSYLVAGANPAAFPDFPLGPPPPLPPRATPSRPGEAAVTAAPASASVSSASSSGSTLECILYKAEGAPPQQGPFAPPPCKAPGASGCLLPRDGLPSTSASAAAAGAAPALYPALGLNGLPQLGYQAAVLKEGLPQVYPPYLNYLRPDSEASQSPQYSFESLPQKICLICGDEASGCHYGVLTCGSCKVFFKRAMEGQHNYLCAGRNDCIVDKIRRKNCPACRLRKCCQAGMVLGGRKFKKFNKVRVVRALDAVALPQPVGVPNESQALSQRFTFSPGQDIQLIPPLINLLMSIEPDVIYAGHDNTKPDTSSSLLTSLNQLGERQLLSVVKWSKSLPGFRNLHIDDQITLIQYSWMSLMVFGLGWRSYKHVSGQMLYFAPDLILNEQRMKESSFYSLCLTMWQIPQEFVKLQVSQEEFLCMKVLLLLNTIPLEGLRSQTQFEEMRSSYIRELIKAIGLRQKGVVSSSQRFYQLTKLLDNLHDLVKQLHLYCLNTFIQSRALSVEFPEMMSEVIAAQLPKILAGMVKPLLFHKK
Method: (§1) To measure the interaction between SLIM3 and the nuclear receptors in vitro, the GST-Slim3 fusion protein was immobilized by means of glutathione-sepharose and incubated with several in vitro-translated ^35S-methionine-labeled nuclear receptors. The complete human androgen receptor binds to GST-Slim3. This in vitro interaction is not ligand-dependent under standard conditions. The complete human androgen receptor binds specifically to GST-Slim3, but not to the GST protein alone. To safeguard the specificity between the human androgen receptor and SLIM3, another GST-protein-interaction test was carried out (GST-protein-interaction assay). This test is described in E. PFITZNER et al. (1995) Functional Antagonism Between the Retinoid Acid Receptor and the Viral Transactivator BZLF1 is Mediated by Protein-Protein Interactions. Proc Natl Acad Sci USA Vol. 92, pp. 12265-12269.

glucocorticoid receptors = target: T2, glucocorticoid receptors (Homo sapiens, UniProt P04150); test: GST-protein-interaction test; assay type: binding; settings: in vitro
T2 construct: made in house; host or cells: in vitro translation, 35S-methionine labelled
T2 sequence (P04150 1-777): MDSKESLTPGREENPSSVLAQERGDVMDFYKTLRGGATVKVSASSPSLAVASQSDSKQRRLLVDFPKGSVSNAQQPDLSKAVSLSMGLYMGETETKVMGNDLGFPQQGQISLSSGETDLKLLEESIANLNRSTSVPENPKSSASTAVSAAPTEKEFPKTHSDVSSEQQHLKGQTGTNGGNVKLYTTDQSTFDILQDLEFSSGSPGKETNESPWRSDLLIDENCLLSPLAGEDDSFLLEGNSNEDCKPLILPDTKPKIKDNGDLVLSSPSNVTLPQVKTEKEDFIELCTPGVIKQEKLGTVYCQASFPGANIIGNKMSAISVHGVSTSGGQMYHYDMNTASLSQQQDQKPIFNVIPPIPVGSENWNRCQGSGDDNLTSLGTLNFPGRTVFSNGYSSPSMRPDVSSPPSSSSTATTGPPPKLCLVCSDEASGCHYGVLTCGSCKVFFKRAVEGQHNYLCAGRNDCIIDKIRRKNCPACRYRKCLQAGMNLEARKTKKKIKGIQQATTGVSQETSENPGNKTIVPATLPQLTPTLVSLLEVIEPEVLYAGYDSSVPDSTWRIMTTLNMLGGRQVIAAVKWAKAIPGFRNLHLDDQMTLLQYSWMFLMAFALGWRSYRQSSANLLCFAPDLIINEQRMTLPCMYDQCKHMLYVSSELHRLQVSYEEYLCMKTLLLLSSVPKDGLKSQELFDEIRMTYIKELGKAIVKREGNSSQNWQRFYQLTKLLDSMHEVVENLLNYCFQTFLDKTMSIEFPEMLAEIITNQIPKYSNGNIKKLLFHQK
Method: as §1

co-activator TIF2 = co-activator TIF2 (Homo sapiens, UniProt Q15596); test: GST-protein-interaction test; assay type: binding; settings: in vitro
Method: as §1

[2] = target: T3, progesterone receptor beta (Homo sapiens, UniProt P06401); test: GST-protein-interaction test; assay type: binding; settings: in vitro
T3 construct: made in house; host or cells: in vitro translation, 35S-methionine labelled
T3 sequence (P06401 1-933): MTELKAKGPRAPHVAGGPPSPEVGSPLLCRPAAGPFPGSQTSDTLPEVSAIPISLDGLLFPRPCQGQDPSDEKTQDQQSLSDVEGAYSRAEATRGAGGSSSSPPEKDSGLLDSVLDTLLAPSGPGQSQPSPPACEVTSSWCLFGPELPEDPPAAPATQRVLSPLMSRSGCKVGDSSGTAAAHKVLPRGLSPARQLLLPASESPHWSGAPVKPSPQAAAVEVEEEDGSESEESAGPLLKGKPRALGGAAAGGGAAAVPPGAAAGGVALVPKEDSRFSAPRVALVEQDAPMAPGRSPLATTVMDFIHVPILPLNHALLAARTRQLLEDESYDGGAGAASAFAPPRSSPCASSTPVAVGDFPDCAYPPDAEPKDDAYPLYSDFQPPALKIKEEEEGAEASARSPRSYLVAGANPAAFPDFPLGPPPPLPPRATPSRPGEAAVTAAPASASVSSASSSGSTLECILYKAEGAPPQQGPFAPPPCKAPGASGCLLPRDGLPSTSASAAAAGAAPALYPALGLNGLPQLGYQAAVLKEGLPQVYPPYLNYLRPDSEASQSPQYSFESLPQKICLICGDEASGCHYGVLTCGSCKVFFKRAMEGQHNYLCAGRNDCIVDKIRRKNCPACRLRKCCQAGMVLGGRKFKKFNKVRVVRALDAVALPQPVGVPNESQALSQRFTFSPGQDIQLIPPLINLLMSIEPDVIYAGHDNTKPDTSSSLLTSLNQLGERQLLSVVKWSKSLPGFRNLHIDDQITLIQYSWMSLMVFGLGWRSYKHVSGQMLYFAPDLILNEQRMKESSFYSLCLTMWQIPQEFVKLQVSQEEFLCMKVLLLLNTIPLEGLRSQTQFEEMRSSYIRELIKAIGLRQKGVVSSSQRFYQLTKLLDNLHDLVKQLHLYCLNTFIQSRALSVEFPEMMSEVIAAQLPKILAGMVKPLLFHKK
Method: as §1

DNA = DNA binding

co-activator TIF2, sequence (Q15596 whole entry): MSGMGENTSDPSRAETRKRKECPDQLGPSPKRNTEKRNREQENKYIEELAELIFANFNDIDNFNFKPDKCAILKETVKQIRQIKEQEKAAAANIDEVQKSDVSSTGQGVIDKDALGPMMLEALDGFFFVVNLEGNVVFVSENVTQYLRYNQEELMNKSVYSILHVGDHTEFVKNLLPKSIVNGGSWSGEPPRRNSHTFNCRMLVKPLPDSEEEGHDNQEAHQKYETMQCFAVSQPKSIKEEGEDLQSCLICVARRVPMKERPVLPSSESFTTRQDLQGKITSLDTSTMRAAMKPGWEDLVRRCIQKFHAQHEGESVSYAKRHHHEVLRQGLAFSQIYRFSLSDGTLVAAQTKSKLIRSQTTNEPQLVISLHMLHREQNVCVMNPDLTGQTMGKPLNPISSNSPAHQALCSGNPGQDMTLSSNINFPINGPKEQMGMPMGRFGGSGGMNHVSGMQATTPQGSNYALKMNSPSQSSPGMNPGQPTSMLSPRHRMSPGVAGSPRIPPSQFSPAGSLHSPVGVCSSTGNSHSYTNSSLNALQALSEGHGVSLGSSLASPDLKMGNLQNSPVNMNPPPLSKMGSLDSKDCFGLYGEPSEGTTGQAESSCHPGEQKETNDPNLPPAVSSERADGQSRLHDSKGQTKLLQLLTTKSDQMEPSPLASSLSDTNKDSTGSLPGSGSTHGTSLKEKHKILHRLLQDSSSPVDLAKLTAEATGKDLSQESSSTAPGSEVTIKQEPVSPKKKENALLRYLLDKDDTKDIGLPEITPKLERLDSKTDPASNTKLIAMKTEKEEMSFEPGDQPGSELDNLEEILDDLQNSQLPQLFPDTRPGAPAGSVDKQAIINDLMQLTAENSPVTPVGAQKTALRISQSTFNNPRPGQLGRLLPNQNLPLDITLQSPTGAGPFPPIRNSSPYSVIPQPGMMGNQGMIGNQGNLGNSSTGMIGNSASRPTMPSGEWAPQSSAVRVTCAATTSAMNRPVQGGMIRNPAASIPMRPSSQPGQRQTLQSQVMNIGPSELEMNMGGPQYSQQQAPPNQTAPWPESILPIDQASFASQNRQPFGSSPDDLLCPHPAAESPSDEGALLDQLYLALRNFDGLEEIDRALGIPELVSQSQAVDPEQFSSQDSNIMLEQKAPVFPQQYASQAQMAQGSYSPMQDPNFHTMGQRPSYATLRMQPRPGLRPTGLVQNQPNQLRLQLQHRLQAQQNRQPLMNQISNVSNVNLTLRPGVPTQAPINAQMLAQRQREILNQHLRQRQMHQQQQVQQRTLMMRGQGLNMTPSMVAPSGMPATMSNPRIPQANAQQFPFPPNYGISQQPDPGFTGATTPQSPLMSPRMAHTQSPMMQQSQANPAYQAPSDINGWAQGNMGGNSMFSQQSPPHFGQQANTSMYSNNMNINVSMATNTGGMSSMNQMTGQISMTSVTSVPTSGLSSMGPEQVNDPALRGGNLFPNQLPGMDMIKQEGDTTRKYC
co-activator TIF2, sequence (Q14192 whole entry partner): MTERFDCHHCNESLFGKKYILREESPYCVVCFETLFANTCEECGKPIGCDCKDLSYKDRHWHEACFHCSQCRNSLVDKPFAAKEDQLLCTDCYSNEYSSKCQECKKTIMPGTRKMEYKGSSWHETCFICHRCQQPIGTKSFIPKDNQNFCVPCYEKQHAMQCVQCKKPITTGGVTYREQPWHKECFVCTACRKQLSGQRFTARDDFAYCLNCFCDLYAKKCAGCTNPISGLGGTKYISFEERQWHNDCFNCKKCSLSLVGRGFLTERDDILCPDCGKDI

bond to SLIM3 [1]: no bond | bond to SLIM3 (glucocorticoid receptors): no bond | interaction with co-activator (co-activator TIF2): interacts | bond to SLIM3 [2]: no bond | binding to DNA (DNA): does not bind
Substance: SLIM3: LIM-domain protein of 279 amino acids, co-activator for nuclear receptors AR and ERβ
